This passage reports mutagenesis rate by NHEJ (T7E1 assay) with the AcrIIA4-2A-Cas9 vector; SpyCas9 vector alone 8.0%, repression of the target mutation and mutagenesis rate by NHEJ (T7E1 assay) with the AcrIIA4-Cdt1-2A-Cas9 vector; SpyCas9 vector alone 8.0% results from PMC7584632.

The target in experiment [1] is SpyCas9 (Streptococcus pyogenes).
The target is the same in experiment [2]. The source holds these as a separate data set.

In experiment [1], AcrIIA4 (natural protein) returned a mutagenesis rate by NHEJ (T7E1 assay) with the AcrIIA4-2A-Cas9 vector; SpyCas9 vector alone 8.0% of 0.9%. For “AcrIIA4-hCdt1(30–120) (from UniProt Q9H211 30-120)”, the repression of the target mutation at AAVS1 (T7E1 assay, ssODN template) against SpyCas9 alone in experiment [2] was determined as 79.1%. Further, the mutagenesis rate by NHEJ (T7E1 assay) with the AcrIIA4-Cdt1-2A-Cas9 vector; SpyCas9 vector alone 8.0% in experiment [1] was 3.7%.
